Laboratory results reported in patent US20260008852A1 (CRYSTAL BIOSCIENCE, published 2026).
Where a chain is given by its changes, count along the chain named.

T1: B7-H3 on B7-H3-expressing CHO cells (Genescript) (UniProt Q5ZPR3 29-534, limits assumed)
T1 construct: whole, on cells; also called CHO-K1/B7-H3; MFI B7-H3
T1 sequence (looked up): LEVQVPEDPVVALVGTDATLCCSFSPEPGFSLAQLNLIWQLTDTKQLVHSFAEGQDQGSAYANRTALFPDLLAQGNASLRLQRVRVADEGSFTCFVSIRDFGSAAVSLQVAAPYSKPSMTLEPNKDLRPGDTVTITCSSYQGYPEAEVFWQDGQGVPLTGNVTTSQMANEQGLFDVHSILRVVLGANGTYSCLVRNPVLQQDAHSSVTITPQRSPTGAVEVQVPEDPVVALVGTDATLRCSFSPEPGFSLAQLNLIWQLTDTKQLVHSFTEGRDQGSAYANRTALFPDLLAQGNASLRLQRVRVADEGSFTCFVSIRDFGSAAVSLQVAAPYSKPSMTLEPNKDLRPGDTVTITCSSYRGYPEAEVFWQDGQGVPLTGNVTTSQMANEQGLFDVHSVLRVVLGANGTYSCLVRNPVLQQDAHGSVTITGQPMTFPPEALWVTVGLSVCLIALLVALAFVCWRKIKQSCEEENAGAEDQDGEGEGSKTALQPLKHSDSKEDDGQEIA

T2: His-tagged human B7-H3 (human, UniProt Q5ZPR3-2 29-245, limits assumed)
T2 construct: Bought His-tagged protein coated on the ELISA plate; also called hu B7-H3; CD276
T2 sequence (looked up): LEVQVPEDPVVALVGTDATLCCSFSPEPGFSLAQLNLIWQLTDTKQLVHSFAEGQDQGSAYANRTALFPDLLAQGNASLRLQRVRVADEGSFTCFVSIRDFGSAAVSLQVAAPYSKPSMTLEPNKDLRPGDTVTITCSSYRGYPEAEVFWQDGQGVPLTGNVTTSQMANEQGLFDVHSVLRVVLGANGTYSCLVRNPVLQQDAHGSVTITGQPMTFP

T3: His-tagged cynomolgus monkey B7-H3 (cynomolgus monkey)
T3 chain: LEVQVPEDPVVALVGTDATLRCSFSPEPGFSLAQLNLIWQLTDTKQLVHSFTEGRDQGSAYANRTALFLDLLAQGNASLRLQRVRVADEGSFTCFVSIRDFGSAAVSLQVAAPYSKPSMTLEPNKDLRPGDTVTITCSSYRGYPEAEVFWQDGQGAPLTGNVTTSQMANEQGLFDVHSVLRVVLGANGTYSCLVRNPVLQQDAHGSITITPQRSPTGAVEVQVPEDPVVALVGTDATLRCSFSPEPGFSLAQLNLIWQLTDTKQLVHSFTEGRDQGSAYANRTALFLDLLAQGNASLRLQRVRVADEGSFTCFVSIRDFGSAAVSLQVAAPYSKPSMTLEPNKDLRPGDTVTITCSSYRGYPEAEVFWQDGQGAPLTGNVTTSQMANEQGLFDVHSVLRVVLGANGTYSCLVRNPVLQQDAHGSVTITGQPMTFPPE

T4: His-tagged mouse B7-H3 (mouse, UniProt Q8VE98 29-244, limits assumed)
T4 construct: Bought His-tagged protein coated on the ELISA plate; also called mu B7-H3; murine B7-H3
T4 sequence (looked up): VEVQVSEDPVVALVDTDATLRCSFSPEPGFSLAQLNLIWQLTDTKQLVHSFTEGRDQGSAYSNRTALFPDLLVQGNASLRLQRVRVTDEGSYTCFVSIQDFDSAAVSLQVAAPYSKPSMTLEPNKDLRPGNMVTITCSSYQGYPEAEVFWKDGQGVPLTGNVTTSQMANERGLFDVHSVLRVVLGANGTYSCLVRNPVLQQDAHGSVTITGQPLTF

B1: 40633p1.1.A11 (scFv, V domains shown)
VH: EVQLLESGGDLVQPGGSLRLSCAASGFTFNTYWMNWVRQAPGKGLEWVAGINSKGGVTYYADSVKGRFTISRDNSKNTLYLQMNSLRAEDTAVYYCADWNDYDIMDVWGQGTTVTVSS
VL: QSVLTQPPSASGTPGQTITISCSGSSSNVGRRTVNWYQQLPGTAPKLLIYTNAQRPSGVPDRFSGSKSGTSASLAISGLQSEDEADYYCATWDDSLNAWVFGGGTKLTVL
notes: Tested as scFv-Fc (Expi293 supernatant)
B2: 40633p1.2.A10 (scFv, V domains shown)
VH: EVQLLESGGGLVQPGGSLRLSCAASGFTVSYYGMSWVRQAPGKGLEWVSVIKQDGSEEYYADSVKGRFTISRDNSKNTLYLQMNSLRAEDTAVYYCARHWNDYSNGMNVWGQGTTVTVSS
VL: QSVLTQPPSASGTPGQRVTISCSGSTSNVGDRYVYWYQQLPGTAPKLLIYLDDQRPSGVPDRFSGSKSGTSASLAISGLQSEDEADYYCASWDASLNGWVFGGGTKLTVL
notes: as for B1
B3: 40633p1.1.A7 (scFv, V domains shown)
VH: B2 VH with V50A, E58K, G106A
VL: B2 VL with V29I, D31R, R32E, Y33S, L51T, D52I, D86V
notes: as for B1
B4: 40633p1.2.E1 (scFv, V domains shown)
VH: B2 VH with G9R
VL: B2 VL
notes: as for B1
B5: 40633p1.2.F3 (scFv, V domains shown)
VH: B2 VH
VL: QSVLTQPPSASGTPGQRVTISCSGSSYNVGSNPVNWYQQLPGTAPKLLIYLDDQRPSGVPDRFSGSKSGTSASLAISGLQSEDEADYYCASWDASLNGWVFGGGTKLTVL
notes: as for B1
B6: 40633p1.2.C3 (scFv, V domains shown)
VH: B2 VH with V50A, E58K, G106A, G111E
VL: B2 VL with T26N, D31G, R32N, Y35S, L51R, D52N, D53S, D86V
notes: as for B1
B7: 40633p1.1.G11 (scFv, V domains shown)
VH: B2 VH with L86P
VL: B2 VL
notes: as for B1
B8: 40579p1.E5 (scFv, V domains shown)
VH: EVQLLESGGGLVQPGGSLRLSCAASGFTFSDDWMTWVRQAPGKGLEWVSAINWNGNSTHYADSVKGRFTVSRDNSKNTLYLQMNSLRAEDTAVYYCAKSRTTYYSSMDVWGQGTTVTVSS
VL: EIVLTQSPGTLSLSPGERATLSCRASQTVGSYLAWYQQKPGQAPRLLIYGASSRATGIPARFSGSGSGTDFTLTISSLQSEDFAVYYCQHYYDWPPYSFGGGTKVEIK
notes: as for B1
B9: 40579p1.G1 (scFv, V domains shown)
VH: EVQLLESGGGLVQPGGSLRLSCAASGFNFSSYWMSWVRQAPGKGLEWVSGISISYGGNAYYADSVKGRFTVSRDNSKNTLYLQMNSLRAEDTAVYYCGRDRSPYQYRSMDVWGQGTTVTVSS
VL: B8 VL with T28S, V29I, G30R, Y32D, D70E, H90Q, Y92N, D93N, Y97L, S98T
notes: as for B1
B10: 40579p1.H7 (scFv, V domains shown)
VH: B9 VH with G10D
VL: B8 VL with T28S, V29I, G30R, Y32D, D70E, H90Q, Y92N, D93N, Y97L, S98T
notes: as for B1
B11: 40633p1.1.A6 (scFv, V domains shown)
VH: EVQLLESGGGLVQPGGSLRLSCAASGFSFSNYDMSWVRQAPGKGLEWVAGIRSGSRTYYADSVKGRFTISRDNSKNTLYLQMNSLRAEDTATYYCGRYFNMDVWGQGTTVTVSS
VL: QSVLTQPPSASGTPGQRVTISCSGSTFNIGTNLVHWYQQLPGTAPKLLIYLTDRRPSGVPDRFSGSKSGTSASLAISGLQSEDEANYYCATWDDSLNSFLFGGGTKLTVL
notes: as for B1
B12: 40633p1.2.E11 (scFv, V domains shown)
VH: B11 VH
VL: B11 VL with S57P
notes: as for B1
B13: 40579p1.F7 (scFv, V domains shown)
VH: B9 VH with N28T, S31D, W33Y
VL: EIVLTQSPGTLSLSPGERATLTCRASQSVGDFLAWYQQKPGQAPRLLIYGASTRAAGIPARFRGSGSGTDFTLTISSLQSEDFAVYYCQQYKNWPPLTFGGGTKVEIK
notes: as for B1
B14: 40579p1.H6 (scFv, V domains shown)
VH: EVQLLESGGGLVQPGGSLRLSCAASGFTVNNAWMSWVRQAPGKGLEWVSAISYGGSIYYADSVKGRFTISRDNSKNTLYLQMNSLRAEDTAVYYCAKHRSTTYNGMDVWGQGTTVTVSS
VL: B13 VL with T22S, D31S, S52N, A60D, S67N, K92Y, N93D
notes: as for B1

target: T1, B7-H3 on B7-H3-expressing CHO cells …; assay: flow cytometry, B7-H3-expressing CHO cells, 10 ug/ml
Procedure: Binding of anti-B7-H3 antibodies to cell lines was assessed by flow cytometry. Briefly, approximately 1.5 e5 B7-H3-expressing CHO cells (Genescript) or parent CHO cells (ATCC) were resuspended in FACS buffer (PBS/1% BSA/0.01% NaN3) containing 10 μg/ml of anti-B7-H3 antibodies and incubated for 60 min on ice. […] Cells were then washed twice, resuspended in FACS buffer, and read on an Attune Flow Cytometer (Life Technologies). Data are expressed as Mean Fluorescent Intensities (MFI).

Binder	MFI @ 10 ug/ml
B1	64800 MFI
B2	63500 MFI
B3	76400 MFI
B4	64700 MFI
B5	68800 MFI
B6	53100 MFI
B7	75900 MFI
B8	89200 MFI
B9	87100 MFI
B10	74600 MFI
B11	67800 MFI
B12	81300 MFI
B13	64500 MFI
B14	67600 MFI

target: T2, His-tagged human B7-H3; assay: ELISA OD450 on hu B7-H3 over OD450 on mu B7-H3
Procedure: (§1) The variable regions of heavy and light chains were cloned and assembled into a single chain Fv-Fc (ScFv-Fc) mammalian expression vector. Sanger sequencing was performed by GeneWiz and sequences were evaluated using DNASTAR Lasergene 15. Unique scFv-Fes were transiently expressed in Expi293 cells (Life Technologies, #A14527) grown in Expi293 Expression Medium (Life Technologies, #A1435101) after transfection using the ExpiFectamine transfection reagent and supplements (Life Technologies, #A14524). Cells were incubated for 3-5 days with shaking at 37° C. in a 5% CO2 humidified incubator.

Binder	hu:mu ratio
B1	1.63
B2	1.06
B3	0.991
B4	0.961
B5	1.03
B6	2.01
B7	1.12
B8	1.36
B9	0.966
B10	0.971
B11	1.49
B12	1.5
B13	1.32
B14	1.28

Target: T3, His-tagged cynomolgus monkey B7-H3
Assay: ELISA, coated His-tagged antigen, scFv-Fc 1 ug/ml
Procedure: as §1

Binder	ELISA OD450 @ 1 ug/ml
B1	1.77 OD450
B2	2.14 OD450
B3	1.7 OD450
B4	1.95 OD450
B5	2.04 OD450
B6	2.01 OD450
B7	1.72 OD450
B8	2.17 OD450
B9	1.73 OD450
B10	1.73 OD450
B11	1.62 OD450
B12	2.14 OD450
B13	2.28 OD450
B14	1.7 OD450

target: T4, His-tagged mouse B7-H3; assay: ELISA, coated His-tagged antigen, scFv-Fc 1 ug/ml
Procedure: as §1

Binder	ELISA OD450 @ 1 ug/ml
B1	1.27 OD450
B2	2.02 OD450
B3	1.97 OD450
B4	1.98 OD450
B5	1.91 OD450
B6	0.886 OD450
B7	1.83 OD450
B8	1.44 OD450
B9	1.79 OD450
B10	1.92 OD450
B11	1.26 OD450
B12	1.4 OD450
B13	1.53 OD450
B14	1.17 OD450

target: T2, His-tagged human B7-H3; assay: ELISA, coated His-tagged antigen, scFv-Fc 1 ug/ml
Procedure: as §1

Binder	ELISA OD450 @ 1 ug/ml
B1	2.08 OD450
B2	2.14 OD450
B3	1.95 OD450
B4	1.9 OD450
B5	1.96 OD450
B6	1.78 OD450
B7	2.05 OD450
B8	1.95 OD450
B9	1.73 OD450
B10	1.86 OD450
B11	1.88 OD450
B12	2.09 OD450
B13	2.02 OD450
B14	1.49 OD450
